Reference: patent publication US20240199761A1 (AstraZeneca / MedImmune, published 2024)

B1: Clone 09 (Bis3, TM-YTE; Fab anti-PAD4, scFv anti-PAD2) (bispecific antibody, human IgG1, lambda)
heavy: not shown
light: QSALTQPRSVSGSPGQSVTISCTGTSGDVGRYSHVSWYQQHPGKAPKLIIYNVYERPSGVPDRFSGSKSGNTASLTISGLQAEDEADYYCSSHSRSSTPVLFGGGTKLTVLGQPKAAPSVTLFPPSSEELQANKATLVCLISDFYPGAVTVAWKADSSPVKAGVETTTPSKQSNNKYAASSYLSLTPEQWKSHRSYSCQVTHEGSTVEKTVAPTECS
notes: Bivalent bispecific IgG-HC-scFv; also called PAD240009
B2: PAD40141 hIgG1 ngl-2 (Parent) (Fab, V domains shown)
VH: not shown
VL: SYVLTQPPSVSVSPGQTASITCSGDKVGDKYVSWYQQKPGQAPVLVMYQDSQRPSGIPERISGSNSGNTATLTISGTQAVDEAEYYCQTWDSNEYVFGSGTKVTVL
notes: Anti-PAD2; tested as Fab
B3: 141LO0002 hIgG1 ngl-2 (Fab, V domains shown)
VH: not shown
VL: SYVLTQPPSVSVSPGQTASITCSGDKVGDKYVSWYQQKPGQAPVLVMYQDSQRPSGIPERISGSNSGNTATLTISGTQAVDEAEYYCEVGVDYEYVFGSGTKVTVL
B4: 141LO0002 hIgG1 pgl-3 (Germlined) (Fab, V domains shown)
VH: not shown
VL: SYVLTQPPSVSVSPGQTASITCSGDKVGDKYVSWYQQKPGQSPVLVIYQDSQRPSGIPERFSGSNSGNTATLTISGTQAMDEADYYCEVGVDYEYVFGSGTKVTVL
notes: Anti-PAD2; tested as Fab
B5: 141LO0002 hIgG1 pgl-4 (Germlined) (Fab, V domains shown)
VH: not shown
VL: SYVLTQPPSVSVSPGQTASITCSGDKVGDKYVSWYQQKPGQSPVLVIYQDSQRPSGIPERFSGSNSGNTATLTISGTQAMDEADYYCEVGVDYEYVFGSGTKVTVL
B6: 141LO0030 hIgG1 ngl-2 (Fab, V domains shown)
VH: not shown
VL: SYVLTQPPSVSVSPGQTASITCSGDKVGDKYVSWYQQKPGQAPVLVMYQDSQRPSGIPERISGSNSGNTATLTISGTQAVDEAEYYCQTWYDDALTFGSGTKVTVL
notes: Anti-PAD2; tested as Fab
B7: 141LO0035 hIgG1 ngl-2 (Fab, V domains shown)
VH: not shown
VL: SYVLTQPPSVSVSPGQTASITCSGDKVGDKYVSWYQQKPGQAPVLVMYQDSQRPSGIPERISGSNSGNTATLTISGTQAVDEAEYYCQTWAPDVLLFGSGTKVTVL
notes: Anti-PAD2; tested as Fab
B8: 141LO0039 hIgG1 ngl-2 (Fab, V domains shown)
VH: not shown
VL: SYVLTQPPSVSVSPGQTASITCSGDKVGDKYVSWYQQKPGQAPVLVMYQDSQRPSGIPERISGSNSGNTATLTISGTQAVDEAEYYCHTYAEDEYVFGSGTKVTVL
notes: Anti-PAD2; tested as Fab
B9: 141LO0055 hIgG1 ngl-2 (Fab, V domains shown)
VH: not shown
VL: SYVLTQPPSVSVSPGQTASITCSGDKVGDKYVSWYQQKPGQAPVLVMYQDSQRPSGIPERISGSNSGNTATLTISGTQAVDEAEYYCQSENAVEYVFGSGTKVTVL
notes: Anti-PAD2; tested as Fab
B10: PAD40175 hIgG1 ngl-2 (Fab, V domains shown)
VH: not shown
VL: QAVLTQPSSVSVAPGKTATITCGGDNIGSKSVHWYQQKPGQAPLLVIFYDTDRPSGVPERFSGSNSGNTATLTISRVEAGDEADYYCQVWDSNGDHYVFGTGTKLTVL
notes: Anti-PAD2; tested as Fab
B11: 141LO0035 hIgG1 pgl-4 (Germlined) Clone 22 (Fab, V domains shown)
VH: not shown
VL: SYVLTQPPSVSVSPGQTASITCSGDKVGDKYVSWYQQKPGQSPVLVIYQDSQRPSGIPERFSGSNSGNTATLTISGTQAMDEADYYCQTWAPDVLLFGSGTKVTVL
notes: Anti-PAD2 lead; tested here as Fab
B12: 141LO0030 hIgG1 pgl-4 (Germlined) (Fab, V domains shown)
VH: not shown
VL: SYVLTQPPSVSVSPGQTASITCSGDKVGDKYVSWYQQKPGQSPVLVIYQDSQRPSGIPERFSGSNSGNTATLTISGTQAMDEADYYCQTWYDDALTFGSGTKVTVL
notes: Anti-PAD2; tested as Fab
B13: 141LO0039 hIgG1 pgl-4 (Germlined) (Fab, V domains shown)
VH: not shown
VL: SYVLTQPPSVSVSPGQTASITCSGDKVGDKYVSWYQQKPGQSPVLVIYQDSQRPSGIPERFSGSNSGNTATLTISGTQAMDEADYYCHTYAEDEYVFGSGTKVTVL
notes: Anti-PAD2; tested as Fab
B14: 141LO0035 hIgG1 pgl-4 (Clone 22, anti-PAD2) Fab (Fab, V domains shown)
VH: not shown
VL: SYVLTQPPSVSVSPGQTASITCSGDKVGDKYVSWYQQKPGQSPVLVIYQDSQRPSGIPERFSGSNSGNTATLTISGTQAMDEADYYCQTWAPDVLLFGSGTKVTVL
notes: Tested as Fab
B15: 141LO0030 hIgG1 pgl-4 (anti-PAD2) Fab (Fab, V domains shown)
VH: not shown
VL: SYVLTQPPSVSVSPGQTASITCSGDKVGDKYVSWYQQKPGQSPVLVIYQDSQRPSGIPERFSGSNSGNTATLTISGTQAMDEADYYCQTWYDDALTFGSGTKVTVL
notes: Tested as Fab
B16: PAD40141 hIgG1 ngl-2 (anti-PAD2, parent) Fab (Fab, V domains shown)
VH: not shown
VL: SYVLTQPPSVSVSPGQTASITCSGDKVGDKYVSWYQQKPGQAPVLVMYQDSQRPSGIPERISGSNSGNTATLTISGTQAVDEAEYYCQTWDSNEYVFGSGTKVTVL
notes: Tested as Fab
B17: 141LO0002 hIgG1 ngl-2 (anti-PAD2) Fab (Fab, V domains shown)
VH: not shown
VL: SYVLTQPPSVSVSPGQTASITCSGDKVGDKYVSWYQQKPGQAPVLVMYQDSQRPSGIPERISGSNSGNTATLTISGTQAVDEAEYYCEVGVDYEYVFGSGTKVTVL
B18: 141LO0030 hIgG1 ngl-2 (anti-PAD2) Fab (Fab, V domains shown)
VH: not shown
VL: SYVLTQPPSVSVSPGQTASITCSGDKVGDKYVSWYQQKPGQAPVLVMYQDSQRPSGIPERISGSNSGNTATLTISGTQAVDEAEYYCQTWYDDALTFGSGTKVTVL
notes: Tested as Fab
B19: 141LO0039 hIgG1 ngl-2 (anti-PAD2) Fab (Fab, V domains shown)
VH: not shown
VL: SYVLTQPPSVSVSPGQTASITCSGDKVGDKYVSWYQQKPGQAPVLVMYQDSQRPSGIPERISGSNSGNTATLTISGTQAVDEAEYYCHTYAEDEYVFGSGTKVTVL
notes: Tested as Fab
B20: 141LO0055 hIgG1 ngl-2 (anti-PAD2) Fab (Fab, V domains shown)
VH: not shown
VL: SYVLTQPPSVSVSPGQTASITCSGDKVGDKYVSWYQQKPGQAPVLVMYQDSQRPSGIPERISGSNSGNTATLTISGTQAVDEAEYYCQSENAVEYVFGSGTKVTVL
notes: Tested as Fab
B21: Clone 10 (Bis3, TM-YTE; Fab anti-PAD2, scFv anti-PAD4) (bispecific antibody, human IgG1, lambda)
heavy: not shown
light: SYVLTQPPSVSVSPGQTASITCSGDKVGDKYVSWYQQKPGQSPVLVIYQDSQRPSGIPERFSGSNSGNTATLTISGTQAMDEADYYCQTWAPDVLLFGSGTKVTVLGQPKAAPSVTLFPPSSEELQANKATLVCLISDFYPGAVTVAWKADSSPVKAGVETTTPSKQSNNKYAASSYLSLTPEQWKSHRSYSCQVTHEGSTVEKTVAPTECS
notes: Bivalent bispecific IgG-HC-scFv; also called PAD240010

Experiments:
huFcRn = molecular target: T1, huFcRn (human, UniProt P55899 24-297; P61769 21-119, limits assumed); assay: huFcRn affinity chromatography, pH gradient elution
T1 construct: also called human neonatal Fc receptor

[1] = molecular target: T2, recombinant human PAD2 (biotinylated) (human, UniProt Q9Y2J8 1-665, enzymatically biotinylated on an Avi-tag); assay: SPR (Biacore), biotinylated PAD2 on CM5/C1-streptavidin, Fab flowed over; average
T2 construct: not shown: Avi-tag (and any other tags); said to be at the C-terminus in this earlier assay

[2] = molecular target: T3, recombinant mouse PAD2 (biotinylated) (mouse, UniProt Q08642 1-673, enzymatically biotinylated on an Avi-tag); assay: as above
T3 construct: not shown: Avi-tag (and any other tags); said to be at the C-terminus in this earlier assay

recombinant human PAD2 = molecular target: T4, recombinant human PAD2 (human, UniProt Q9Y2J8 1-665, enzymatically biotinylated on an Avi-tag); assay: SPR (Biacore 8K), biotinylated PAD2 on streptavidin chip, Fab flowed over
T4 construct: Recombinant, biotinylated on an Avi-tag and captured on streptavidin; also called peptidyl arginine deiminase 2

recombinant mouse PAD2 = molecular target: T5, recombinant mouse PAD2 (mouse, UniProt Q08642 1-673, enzymatically biotinylated on an Avi-tag); assay: as above
T5 construct: Recombinant, biotinylated on an Avi-tag

| Binder | Kd [1] [nM] | koff [1] [s⁻¹] | kon [1] [M⁻¹ s⁻¹] | Kd [2] [nM] | koff [2] [s⁻¹] | kon [2] [M⁻¹ s⁻¹] | Kd (recombinant human PAD2) [nM] | other results |
| --- | --- | --- | --- | --- | --- | --- | --- | --- |
| B1 | – | – | – | – | – | – | – | HPLC retention (huFcRn): 23.3 min; Relative retention (huFcRn): 0.828 |
| B2 | 261 | 0.111 | 445000 | – | – | – | – | – |
| B3 | 3.78 | 0.00328 | 880000 | – | – | – | – | – |
| B4 | 3.31 | 0.0035 | 1.07e+06 | 33.8 | 0.026 | 777000 | – | – |
| B5 | 2.78 | 0.00314 | 1.13e+06 | 38.5 | 0.0256 | 692000 | – | – |
| B6 | 0.949 | 0.000613 | 647000 | – | – | – | – | – |
| B7 | 0.185 | 0.000192 | 1.04e+06 | 0.571 | 0.000646 | 1.14e+06 | – | – |
| B8 | 1.87 | 0.00157 | 840000 | – | – | – | – | – |
| B9 | 0.364 | 0.000675 | 1.85e+06 | – | – | – | – | – |
| B10 | 6.73 | 0.000629 | 93000 | 2.35 | 0.000288 | 123000 | – | – |
| B11 | 0.218 | 0.000221 | 1.01e+06 | 0.794 | 0.000766 | 971000 | – | – |
| B12 | 2.14 | 0.00101 | 474000 | 13.2 | 0.00484 | 378000 | – | – |
| B13 | 3.9 | 0.00245 | 629000 | 17.8 | 0.0125 | 722000 | – | – |
| B14 | – | – | – | – | – | – | 0.218 | Kd (recombinant mouse PAD2): 0.794 nM |
| B15 | – | – | – | – | – | – | 2.14 | Kd (recombinant mouse PAD2): 13.2 nM |
| B16 | – | – | – | – | – | – | 261 | – |
| B17 | – | – | – | – | – | – | 3.78 | – |
| B18 | – | – | – | – | – | – | 0.949 | – |
| B19 | – | – | – | – | – | – | 1.87 | – |
| B20 | – | – | – | – | – | – | 0.364 | – |
| B21 | – | – | – | – | – | – | – | HPLC retention (huFcRn): 22.8 min; Relative retention (huFcRn): 0.753 |
